Substitutions are numbered along the chain they refer to.
B1: Sen[K252,255A] (enzyme, UniProt Q5XD01 1-435, looked up)
chain: MSIITDVYAREVLDSRGNPTLEVEVYTESGAFGRGMVPSGASTGEHEAVELRDGDKSRYLGLGTQKAVDNVNNIIAKAIIGYDVRDQQAIDRAMIALDGTPNKGKLGANAILGVSIAVARAAADYLEVPLYTYLGGFNTKVLPTPMMNIINGGSHSDAPIAFQEFMIMPVGAPTFKEGLRWGAEVFHALKKILKERGLVTAVGDEGGFAPKFEGTEDGVETILKAIEAAGYEAGENGIMIGFDCASSEFYDAERAVYDYTKFEGEGAAVRTSAEQVDYLEELVNKYPIITIEDGMDENDWDGWKVLTERLGKRVQLVGDDFFVTNTEYLARGIKENAANSILIKVNQIGTLTETFEAIEMAKEAGYTAVVSHRSGETEDSTIADIAVATNAGQIKTGSLSRTDRIAKYNQLLRIEDQLGEVAQYKGIKSFYNLKK
B2: Sen[K434,435A] (enzyme, UniProt Q5XD01 1-435, looked up)
chain: B1 chain with A252K, A255K, K434A, K435A
B3: Sen[K252,255,434,435A] (enzyme, UniProt Q5XD01 1-435, looked up)
chain: B1 chain with K434A, K435A

Molecular target: the molecule itself
Assay: AUC

Question: How did the percent as octamer turn out when B1 was run?
Answer: Its percent as octamer is at least 95%.

Question: For B2, which percent as octamer is on record?
Answer: Its percent as octamer is at least 95%.

Question: B3 was tested. Which percent as octamer did it give?
Answer: The percent as octamer was at least 95%.

Molecular target: the molecule itself
Assay: AUC
Remark: another data set of the same source

Question: Which “stoichiometry N” value does the source give for B1 here?
Answer: Its value is 8.

Question: With B2 as the protein, how does the “stoichiometry N” value read?
Answer: The value was 8.

Question: B3 was tested. Which “stoichiometry N” value did it give?
Answer: The value was 8.
